Experiment: label from the status in PepcDB records
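Note: failed if final PepcDB status was selected cloned or expressed and not failed if soluble or beyond.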

Row | Sequence | protein production
1 | MPAIMPMLWKQPFGNNLWGLKMKKVEKLLIIGIVLISSILLGAMTLAKPAQANASIVIVIDNEVKHRIPLMVEEEMQTYEFKFGEQTGYLEVKNGKVRMLEMPKEICPEGICSETGWIARSSQAIVCLPNKIIVTIQGLDDKNDEIL | failed
2 | MPAKRRSNARPARAWPTCLSRGSSAVKRVHVAAAVIRDASGKILIARRADTQHQGGLWEFPGGKVEPGEAVEAALARELQEELGIAVTAARPLIKVQHDYPDKQVLLDVWEVSAFSGEPHGAEGQPLAWVTARELADYEFPAANQPIVAAARLPAQYLITPEGLETPTLLRGMQKAVAQGCKLIQLRAPGGYDPQYRDLAVDAVGLCAGKAQLMLKGPFEWLGDFPSAGWHITAAQLRKYASAGRPFGKDRWLAASCHNAEELSLAQQMDVDFVTLSPVQPTQTHPDAQPLGWQQAEQLISGFNKPVYLLGGVGPAECQQAWAAGAQGVAGIRAFWPQD | failed
3 | MPAPKKALRRSLTVTSAALTALALLSPAALAAPSPSTSPSATPPASMSGVGGARLGKPGTQVDLAGGAPVLPKDLTARSWIVADAESGDVLAAHNAHWELAPASTLKMLFADTLLPKWPKTTKRKVQVSDLAGIGSGSSMVGIKEEETYTVHDLWLGVFLRSGNDAVHVLSAMNDGVEKTVADMNAHAKELQAGDTTVVSPDGYDMPGQVSSAYDLTLFARSGLQKKDFREYASTVRAKFPGETKKDKKGKTSREPFEIQNTNRLLAGDADVEVYPGIAGVKNGYTTNAGNTFTGVAEQGGKVLLVTVMHPAEDKHNEVYKETARLFDWGFRAAGKVRPVGELVRPRSATAASPSAEASGEAGGTGKGGAGTKPVAGAAAGDGAGGAGVAAGIAAGVLALLAGGAFLINRKWPLPDLVRRRTRP | failed
4 | MPASETQGGPPPDDHTDAEPPPPLPEQSDFADAVLAAMPDPVFVFGPQNTLAWGNPPLRQAVGHSAAALRGKSLPELFGKGDAAAVEQALDAVRAGRDTATAEVALLPREGPPRPCTFTARPLSGDVGPPNCVVGIAR | failed
5 | MPAYDLIIRNGTICDGTGAPRFTGDVAVKNGLIVAVGAVRGDAAEEVDATGRIVAPGWVDVHTHYDGQATWDPEMAPSSWHGVTTVIMGNCGVGFAPAAPDRHDWLIGLMEGVEDIPGTALAEGMAWDWESFPEYLDSLEKMPRAVDVGTHVPHGAVRAYVLGEREKPGAVPTAEDIRKMSEIVEEGVRAGALGFSTSRTVIHKSVDGEVVPGTTATAEELIEIGRAMGRVGHGVFEMASDMKREWDEFGWMGALSRETGLPVTYAALQSIAKEMPLEEQIAEMRHQNAQGANIVAQIALRGNGVIMAWRGTIHPFRFRPSYAAIAELPWEEQLVQLKDPAFRAKVLAEANVYPDSDIVNLFRMIAEGWHNQFIMDEDFDYEPQPEASILLRAKTAGVSPDAFAYDKLMEDEGNGFIYLPILNYADGNLDFLEALQAADDTVNSLSDGGAHCGTICDAASPTFMLQHWVRDRRRGSRISLEHAIKRQCHDTARLYGLDDRGVIAPGYLADINVIDFDRVRLLKPWLAFDLPAGGKRLLQKAEGYDYTIKGGKVTFRNGEWTGATPGNLIRGPQRADLMEAAE | failed
6 | MPDATLSNTSLGRLAWLWLTVLIVAVDQVSKYYFENALSLYQQIIVIPDYFSWTLAYNTGAAFSFLADGAGWQRWLFALIAVVVSAVLVVWLKRLGRDDTWLAIALALVLGGALGNLYDRVVLGHVIDFILVHWQNRWYFPAFNVADSAITVGAIMLALDMFKSKKTGETVND | failed
7 | MPDIDLHALSRTVLWATFALTFLFGAILQRTHFCTMGAVSDAVNIGDWSRLRMWALAIGVAMIGTGILGWAGWIDPAKTIYAAGRLQWLSALVGGLMFGFGMVLGSGCGSKTLVRIGGGNLKSVVVFVFLGLSAYMTLKGVFGVVRVATVDAVAIALPTTQDLPSVLGHALSADVRMLRLALALAIGGALAVWALAGRDFRTPDNLLGGIGVGLVIVAMWYVSGHLGYVAEDPDTLQEAFVATNSGRMEALSFVAPVSYTLEWLMFFSDTSKVLTVGIVSVLGVIAGSAAVALASGTFRWEGFANAEDTGNHIVGGILMGAGGVTALGCTIGQGLSGVSTLAIGSFVALAGILAGAVLAFRYQMWRLERGG | failed
8 | MPDSVEDTSTISLRICLEGHANALALNKDNNQIALAGRSLLKVYSINSNGFTESCNMRGKNQNLSYSANDVAWSTLDSNLLATAATNGVVSVWDLSKFGRQKQLLVYNEHERTAHTVTFHSSEPNILISGSQDGTIKCFDIRSDKSINTYFCNSESVRDVKFSPHTQNIFSAVSENGTVQLWDMRKWDKCMVQFTAHYGPVYTCDWHPTRNWLATGSRDKQIKVWNMDGRPGLEHTIHTIAVVGRVKWRPERTYHIASCALVVDYSVHVWDIRRPYIPFASFNEHTNVTTGIAWQGSDSHCLLSISKDSTIYKHAFKDATRPALKANAQGASLGRFGDISFANKIKEYEPKTSGASNTKSSSFIRRKTNVAGSIQFHLDHSKMYKFMVNDTFSGYPLSESVSRPTQEHESFIGCARELVISGKKLSELCEHNAEVSKKYGKHNATTLWNFIKLFYGSNHFEPPFEHRSSFSNQKNPMNSRRATQVASDWPQQRTELGQDLNGNTPETAHEIDVANVDDDTLGSSGVEHPPTSSVILSETQIISEITFDNFELLRNGFIYVGPTECPKALAFPALHHDVQAARPQLDLKASDHEKSPVS | failed
9 | MPDYVYGDSMVLKLTLEYSSVLLVSLICCIIAFTSTYTVMPRLINKLKEANVVGNDIHKISKPIVAEMGGIGILFGFTIGMFIGMYCFPELQYELMVTLLVILLVGIVGMVDDLVRLSSREKLFLLFLAGLPIIWVAPPKVGILYMIMMPVAVSIASNLTNMLAGLNGIESGLGSIAMTALTASCIIMGKYDVSIITMAMLGALLAFLMYNRYPSRVFPGDVGTLIIGACIASVAFIGRVKIIALIVLLPNIIDGILKFYSAGVVERHKHRPTEIAEDGKLIAPPEGFNSLIRWILRRPMTEKKVVMIVWSIGMFFGFLGVLLAFILPLDPF | failed
10 | MPEDLNWAIGGEAGDGIDSTGKIFAQALSRAGRHVFTSKDFASRIRGGYTAYKVRTSVDRVESVVDRLDILIALTERTIHENEDELHEDSVIIYDGERSTMQDVEVPGDATALEVPLKRLAEDAGGAIMLNVVALGAACEVTGFPIENLDESLEKRFGDKGEAIVENNKEAARKGQHYVQEEYGEFDYDMETTDEDYVLLNGDEAIGMGAIAAGCRFYSGYPITPATDVMEYMTGRVDQFGGKVVQAEDELSAINMALGAARAGARAMTATSGPGIDLMTETFGLVATSETPLVICDVMRSGPSTGMPTKQEQGDLNMTLYGGHGEIPRFVVAPTTVSECFWKTVEAFNLAEKYQTPVFLVSDLAMAVTEQTFSPETFDMDEVEIDRGKVVDENEIDAWLDEKGRFQAHFAAADGVSPRAFPGTTDGAHMTTGLEHDELGRRTEDTDVRIEQVDKRQRKVETAREQEDFDYREFGDSDADTLVISWGSNEGALREGLTLLEEDGYDVRFLSVPYIFPRPDLSEEIEAAEDVIVVECNATGQFADVIEHDVLERVQRINKYNGVRFKADELATEIKQTLDTPPEATQ | failed
11 | MPEEALIVVDMQRDFMPGGALPVPEGDKIIPKVNEYIRKFKEKGALIVATRDWHPENHISFRERGGPWPRHCVQNTPGAEFVVDLPEDAVIISKATEPDKEAYSGFEGTDLAKILRGNGVKRVYICGVATEYCVRATALDALKHGFEVYLLRDAVKGIKPEDEERALEEMKSRGIKIVQF | not failed
12 | MPELPEVETTRRRLRPLVLGQTLRQVVHRDPARYRNTALAEGRRILEVDRRGKFLLFALEGGVELVAHLGMTGGFRLEPTPHTRAALVLEGRTLYFHDPRRFGRLFGVRRGDYREIPLLLRLGPEPLSEAFAFPGFFRGLKESARPLKALLLDQRLAAGVGNIYADEALFRARLSPFRPARSLTEEEARRLYRALREVLAEAVELGGSTLSDQSYRQPDGLPGGFQTRHAVYGREGLPCPACGRPVERRVVAGRGTHFCPTCQGEGP | not failed
13 | MPEQDVPRVRLFGAHELKISDIFDEKKDIYYVPIFQGKDDVNKLHQSAYTGKNTKCAILDSGVLTDHPYLKDRMDAIEDFTGHGFQDREGHGTAVALNLAMTAPDASILIGKVYENDDVPLSEYINRIARGVNWAIDSGARIINLSVGMEKRKEDISNYPGCSEAVKNVCKAITQAIENGISVLVAAGANFPADCHESIIVVGLPGNPVYPKDVHPTVYSPFSPILVPTFLFEGYAHLKMGMYEQALALFKQAADLHPEDHQLWKYQALCRYGLKKYNDAILSFDKALAIKQSDVKTWYLKGITLLALTQNDKAIECFDEVLKLVNNAGLTGMKLTEFSNSISDDWYNMGVYYEQASRYDEAANCYDKAIRIDPLNAKAWNNRGVILAIEEKYEDSIKYFEVATELKPSMVDAWFNKGLALSRIGKYEESIEFFDKAIAIDPASNKALKERIRVSGKLKSKEE | failed
14 | MPERINKMKIIAFYLPQFHNIPENDEWWGDGFTEWVNVKKAKPIFDGHNQPRVPLNHNYYNLLDDDVKIWQADLAKKYGVYGFCYYHYWFDGKLLLEKPMEQMLENKKVDIPFCICWANEPWTRAWVGETKTLIPQKYGSKKEWKEHFDYLLPFFKDPRYILDEGKPLVVIYRPEIIDVLNDMLDYWNELAKNAGFEGLKFAYQSAGMDELPKNKRNDSRFDYDIEFQPAYAFTKLNKNTLPVLRKIKKVVSDFVEKRTGLTLRFIGSGKVAALNRVDYDKAWETILNTTPESIINVPGAFVDWDNTPRHGERGRVYIGKTPEKFEKYLSEQIRRAKNVYHKDMIFMYAWNEWAEGGYLEPDQTSGYAYLEAIKKALDENGENPWQH | failed
15 | MPESRVKSEPSPAPYWRRNVRLIVLLLACWAGLTFVPAYFARQLAFDFIGWPFSFWMAAYGAPLAYLILIVIYALVMNRFDARSRTRRDD | failed
16 | MPETYIITPNLNGVSFLEVYFRSLLRQTYEDFRVVFIDNGSSDGSVDFIKSNFSEYLGDRIILIENHENLGFAASNNQGIRIALDDPQCRYVVCLNNDTEVLPDFIENLILAAGDDERVGSVQARMIWGQNRKLIDSAGLEYSLNGLGFNRGAYEPVENFNERARILGCCAGACLYRREALEDVEVDAEYFDEDFFAYYEDFDLALRLRSAGWDSLYAPDATVYHYKGGTNPFISDFTVYHNWRNYTWTFIKNMPADLLLMCLPLFVLTEIIQVLLNIKRGKLIILRAKYDAYRGLGRVIRKRRALKRVPESEIKEYLTMRWSVKVPSPQED | failed
17 | MPFINIKLVPENGGPTNEQKQQLIEGVSDLMVKVLNKNKASIVVIIDEVDSNNYGLGGESVHHLRQKN | failed
18 | MPFNTLAPQFSRLGPGLVLSIAATGLAFAIHTVFPAVPAMTLAVALGLLSANIPGTAVLTAGRARPGLDFAGKHLMRAGIVLLGLKVSIGDVIGLGWLSLLLIAGVVLLSFAGTYGLARLLRLPGEAALLIATGFSICGASAIGAMAAVRRIKHQDTVLPVALVTLCGTLAIGVLPLLMHPLNLNPEQFGAWTGASVHDVGQVVATAQTAGTSALAIAVVVKLTRVVLLAPVAAAAGVHQRILHVRERSNGKGDAAKSIDGRFPPIVPLFVVGFLSMVAVRSLGWVPPVGLEIAAAVQDILLATALFGLGSAVRVRTLIHTGGRAILVALGSWLLIASLGLGAAWIMIR | failed
19 | MPFRTIARLNPAKPKAGEEFRLQVVAQHPNEPGTRRDAEGKLIPAKYINLVEVYFEGEKVAEARPGPSTSANPLYAFKFKAEKAGTFTIKLKDTDGDTGEASVKLELV | not failed
20 | MPFVLRCLLCCTLFVLGGCAAHEAPLAPVNPMGLSGNVAPEAEKNYALARVLWGNSEVCSDPVQAVAYLDRAIAVQPDYAAAYQRRGLAYSEMGRYEEAFEDLTKALRLKPGVEAYTYRGLVSMRMGNLIGARKDLDHALELDSGYHRAWNFRAAVRLQQDDTAGACADFAKGCSKGDCTGMESARESGICK | failed
21 | MPGSIPLIGERFPEMEVTTDHGVIKLPDHYVSQGKWFVLFSHPADFTPVCTTEFVSFARRYEDFQRLGVDLIGLSVDSVFSHIKWKEWIERHIGVRIPFPIIADPQGTVARRLGLLHAESATHTVRGVFIVDARGVIRTMLYYPMELGRLVDEILRIVKALKLGDSLKRAVPADWPNNEIIGEGLIVPPPTTEDQARARMESGQYRCLDWWFCWDTPASRDDVEEARRYLRRAAEKPAKLLYEEARTHLH | not failed

— a protein production outcome set (Wang et al. 2014)
